From paper PMC7666168

Target: ΔN−3 gp17.1 (bacteriophage SPP1) (UniProt O48449)
Assay: cryo-EM structure; helical reconstruction of polymerized ΔN−3 gp17.1 tubes, 20 mM Tris-HCl pH 7.4 in place of phosphate; the most straight tubes selected; C6, rise 38.46 Å, twist 21.89°; atomic model by hybrid calculation (ISD) with solid-state NMR restraints from gp17.1 tubes

“ΔN−3 gp17.1 (from UniProt O48449 1-264) (natural protein)” was tested, and the stoichiometry N was 6.
